One block for each binder: values may come before it.
Legend:
[1] = molecular target: T1, horse fibronectin coupled to CNBr-activated Sepharose 4B (horse, UniProt Q28377 32-2477, limits assumed); experiment: pull-down from HEK293 conditioned medium on horse fibronectin-Sepharose 4B, nanoLC-MSMS
T1 construct: Second control column of the pull-down; also called fibronectin column; FN-column

[2] = molecular target: T2, His-tagged human tenascin-C (human, UniProt P24821 23-2201); experiment: SPR (Biacore 2000), tenascin-C-his on CM5 chip, SMOC1 as analyte 3-300 nM, Langmuir 1:1 model, apparent KD
T2 construct: mature; The same construct was coupled to Sepharose 4B, coupled to the CM5 chip and expressed in COS cells for co-immunoprecipitation; also called TNC; hTNC; not shown: His tag
T2 sequence (P24821 23-2201): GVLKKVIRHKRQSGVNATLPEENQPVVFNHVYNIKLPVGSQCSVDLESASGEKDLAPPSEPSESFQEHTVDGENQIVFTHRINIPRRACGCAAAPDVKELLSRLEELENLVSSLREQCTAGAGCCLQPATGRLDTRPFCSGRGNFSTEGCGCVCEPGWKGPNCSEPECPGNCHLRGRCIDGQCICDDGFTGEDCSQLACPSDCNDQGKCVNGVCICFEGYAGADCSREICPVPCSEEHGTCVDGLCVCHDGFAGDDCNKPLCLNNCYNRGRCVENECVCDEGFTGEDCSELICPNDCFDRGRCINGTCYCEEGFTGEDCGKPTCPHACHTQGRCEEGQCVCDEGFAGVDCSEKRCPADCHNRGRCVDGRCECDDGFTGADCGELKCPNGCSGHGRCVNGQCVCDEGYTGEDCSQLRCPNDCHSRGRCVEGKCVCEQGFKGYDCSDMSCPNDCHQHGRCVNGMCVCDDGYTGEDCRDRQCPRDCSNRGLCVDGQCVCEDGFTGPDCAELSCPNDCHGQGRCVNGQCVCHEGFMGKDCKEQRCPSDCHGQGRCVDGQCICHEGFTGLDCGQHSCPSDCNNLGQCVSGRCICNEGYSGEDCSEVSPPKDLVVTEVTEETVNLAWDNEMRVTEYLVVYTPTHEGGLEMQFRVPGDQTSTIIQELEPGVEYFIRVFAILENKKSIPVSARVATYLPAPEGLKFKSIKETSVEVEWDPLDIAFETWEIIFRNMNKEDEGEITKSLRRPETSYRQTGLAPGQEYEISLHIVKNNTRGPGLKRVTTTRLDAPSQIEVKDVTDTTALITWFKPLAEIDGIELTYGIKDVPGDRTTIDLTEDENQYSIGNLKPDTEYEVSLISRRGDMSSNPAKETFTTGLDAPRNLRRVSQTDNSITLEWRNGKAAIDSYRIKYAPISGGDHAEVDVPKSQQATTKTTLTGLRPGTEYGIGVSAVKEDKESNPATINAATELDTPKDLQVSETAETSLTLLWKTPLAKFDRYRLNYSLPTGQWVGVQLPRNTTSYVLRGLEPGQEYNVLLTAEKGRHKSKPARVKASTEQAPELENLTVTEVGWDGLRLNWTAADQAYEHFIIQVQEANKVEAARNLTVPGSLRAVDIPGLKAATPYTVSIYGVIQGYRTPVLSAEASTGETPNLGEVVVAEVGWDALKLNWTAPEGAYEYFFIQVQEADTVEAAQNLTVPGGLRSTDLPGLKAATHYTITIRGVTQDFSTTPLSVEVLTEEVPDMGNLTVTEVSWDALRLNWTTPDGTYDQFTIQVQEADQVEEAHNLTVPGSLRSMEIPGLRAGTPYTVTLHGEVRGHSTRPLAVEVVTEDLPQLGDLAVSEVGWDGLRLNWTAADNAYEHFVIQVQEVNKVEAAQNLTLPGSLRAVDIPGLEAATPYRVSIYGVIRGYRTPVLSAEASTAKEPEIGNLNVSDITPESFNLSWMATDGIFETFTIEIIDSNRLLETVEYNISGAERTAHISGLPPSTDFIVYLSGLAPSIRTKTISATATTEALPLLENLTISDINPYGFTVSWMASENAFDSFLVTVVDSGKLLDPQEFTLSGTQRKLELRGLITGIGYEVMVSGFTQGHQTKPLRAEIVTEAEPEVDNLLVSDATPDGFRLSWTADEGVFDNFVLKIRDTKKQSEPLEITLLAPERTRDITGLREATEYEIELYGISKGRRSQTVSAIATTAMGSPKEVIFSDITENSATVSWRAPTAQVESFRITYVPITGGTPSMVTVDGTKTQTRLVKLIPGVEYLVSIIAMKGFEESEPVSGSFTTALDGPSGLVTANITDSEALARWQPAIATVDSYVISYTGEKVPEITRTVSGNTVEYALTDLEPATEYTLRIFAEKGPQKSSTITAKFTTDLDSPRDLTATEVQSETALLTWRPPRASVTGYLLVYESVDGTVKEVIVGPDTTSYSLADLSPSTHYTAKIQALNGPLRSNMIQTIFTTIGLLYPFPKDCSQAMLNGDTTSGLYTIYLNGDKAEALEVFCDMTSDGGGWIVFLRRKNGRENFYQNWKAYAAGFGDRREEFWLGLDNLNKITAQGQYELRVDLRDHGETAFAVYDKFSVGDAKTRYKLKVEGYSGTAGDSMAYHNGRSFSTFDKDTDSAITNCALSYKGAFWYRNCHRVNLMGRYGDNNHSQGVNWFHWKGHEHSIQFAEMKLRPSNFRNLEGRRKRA
Description: Surface Plasmon Resonance Spectroscopy. Surface plasmon resonance spectroscopy was performed using a Biacore 2000 (BIAcore AB) system. Purified human tenascin-his protein was coupled in 25 mM sodium acetate pH 5 with a flow rate of 5 μl/min to a CM5 chip beforehand activated with N-hydroxysuccinimide and 1-ethyl-3-(3-dimethylaminopropyl)carbodiimide hydrochloride. Unbound reactive groups were then saturated with 1 M ethanolamine hydrochloride, pH 8.5. Experiments were carried out using increasing concentrations (3, 10, 30, 100 and 300 nM) of SMOC1 diluted in running buffer (pH 7.4, 20 mM Hepes, 150 mM NaCl, 2 mM CaCl2, 0.005% P20). The analyte was passed over the sensor chip with a constant flow rate of 25 μl/min for 240 s, and dissociation was measured over 500 s. Fittings of the data, overlay plots, and calculation of KD values were done with BIAevaluation software 4.1.
Interaction between tenascin-C and SMOC1 by Surface Plasmon Resonance Spectroscopy. In order to firmly establish binding between SMOC1 and tenascin-C, the present inventors performed Surface Plasmon Resonance Spectroscopy. Purified his-tagged tenascin-C was coupled to a CM5 chip and SMOC1 were tested as soluble analyte at increasing concentrations. Associations and dissociations of the obtained binding curves were analyzed in a Langmuir 1:1 binding model. […]

[3] = molecular target: T2, His-tagged human tenascin-C; experiment: pull-down on tenascin-C-Sepharose 4B, multiple reaction monitoring

T1 sequence (Q28377 32-2477 limits assumed): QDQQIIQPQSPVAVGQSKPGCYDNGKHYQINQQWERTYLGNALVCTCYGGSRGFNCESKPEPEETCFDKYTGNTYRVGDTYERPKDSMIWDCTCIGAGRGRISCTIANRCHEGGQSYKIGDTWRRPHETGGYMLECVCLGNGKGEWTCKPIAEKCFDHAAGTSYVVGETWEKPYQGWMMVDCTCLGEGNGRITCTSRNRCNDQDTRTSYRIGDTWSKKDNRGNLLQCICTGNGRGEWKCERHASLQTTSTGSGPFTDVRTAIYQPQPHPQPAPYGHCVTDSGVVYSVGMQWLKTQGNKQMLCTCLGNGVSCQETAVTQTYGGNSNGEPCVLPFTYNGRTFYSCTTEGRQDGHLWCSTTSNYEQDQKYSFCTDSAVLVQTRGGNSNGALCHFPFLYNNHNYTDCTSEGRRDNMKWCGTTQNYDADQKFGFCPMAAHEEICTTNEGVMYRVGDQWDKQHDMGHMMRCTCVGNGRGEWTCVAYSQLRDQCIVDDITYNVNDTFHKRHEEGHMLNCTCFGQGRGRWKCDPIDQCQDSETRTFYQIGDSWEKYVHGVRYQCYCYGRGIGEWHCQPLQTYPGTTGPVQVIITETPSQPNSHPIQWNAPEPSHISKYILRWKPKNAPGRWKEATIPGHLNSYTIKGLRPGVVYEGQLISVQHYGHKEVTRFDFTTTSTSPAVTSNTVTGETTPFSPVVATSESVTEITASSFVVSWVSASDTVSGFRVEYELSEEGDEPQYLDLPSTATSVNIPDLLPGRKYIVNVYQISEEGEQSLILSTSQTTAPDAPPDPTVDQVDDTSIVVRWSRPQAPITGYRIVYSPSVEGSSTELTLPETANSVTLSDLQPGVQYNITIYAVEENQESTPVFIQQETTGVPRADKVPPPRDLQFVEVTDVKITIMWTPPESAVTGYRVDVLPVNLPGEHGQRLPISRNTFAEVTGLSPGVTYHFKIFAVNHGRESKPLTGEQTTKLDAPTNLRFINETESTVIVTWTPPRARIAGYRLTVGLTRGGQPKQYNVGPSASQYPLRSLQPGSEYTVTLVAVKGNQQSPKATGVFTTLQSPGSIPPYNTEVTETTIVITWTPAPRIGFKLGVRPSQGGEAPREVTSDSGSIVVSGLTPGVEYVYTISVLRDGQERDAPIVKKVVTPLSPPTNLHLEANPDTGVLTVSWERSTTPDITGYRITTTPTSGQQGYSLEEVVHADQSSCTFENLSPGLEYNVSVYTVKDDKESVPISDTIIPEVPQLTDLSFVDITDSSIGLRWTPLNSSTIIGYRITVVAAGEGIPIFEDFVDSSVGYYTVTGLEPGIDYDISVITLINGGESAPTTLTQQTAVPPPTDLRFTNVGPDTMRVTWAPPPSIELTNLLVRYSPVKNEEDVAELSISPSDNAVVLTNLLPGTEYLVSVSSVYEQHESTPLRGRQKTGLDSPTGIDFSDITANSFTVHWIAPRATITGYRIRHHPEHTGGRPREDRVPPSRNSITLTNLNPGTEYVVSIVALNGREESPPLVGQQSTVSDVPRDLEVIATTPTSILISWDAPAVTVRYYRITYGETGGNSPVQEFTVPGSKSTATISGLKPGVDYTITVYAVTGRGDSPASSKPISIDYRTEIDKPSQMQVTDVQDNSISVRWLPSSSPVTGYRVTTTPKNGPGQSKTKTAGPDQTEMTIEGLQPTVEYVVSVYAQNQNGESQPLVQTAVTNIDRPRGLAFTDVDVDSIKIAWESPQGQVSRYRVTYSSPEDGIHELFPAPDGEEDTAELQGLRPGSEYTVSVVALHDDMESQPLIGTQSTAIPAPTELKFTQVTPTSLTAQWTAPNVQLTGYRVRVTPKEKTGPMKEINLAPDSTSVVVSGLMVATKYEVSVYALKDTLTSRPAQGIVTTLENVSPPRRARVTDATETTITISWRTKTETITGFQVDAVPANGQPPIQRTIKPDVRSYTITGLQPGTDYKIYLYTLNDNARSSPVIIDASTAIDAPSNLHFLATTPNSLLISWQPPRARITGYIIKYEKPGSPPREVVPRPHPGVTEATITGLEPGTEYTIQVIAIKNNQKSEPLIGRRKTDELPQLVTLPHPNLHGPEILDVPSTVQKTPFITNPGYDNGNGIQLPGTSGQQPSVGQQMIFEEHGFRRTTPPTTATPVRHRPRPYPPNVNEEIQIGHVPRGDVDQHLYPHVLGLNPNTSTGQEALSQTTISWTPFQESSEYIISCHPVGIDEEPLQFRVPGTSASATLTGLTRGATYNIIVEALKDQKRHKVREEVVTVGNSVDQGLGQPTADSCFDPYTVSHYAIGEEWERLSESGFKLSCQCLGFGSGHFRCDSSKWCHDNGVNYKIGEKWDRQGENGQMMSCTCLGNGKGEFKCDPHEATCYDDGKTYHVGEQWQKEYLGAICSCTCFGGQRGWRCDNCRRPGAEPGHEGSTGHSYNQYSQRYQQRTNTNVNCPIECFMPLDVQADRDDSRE

Kd [2]: 2.2 nM
B3: human recombinant SMOC1 (soluble analyte in surface plasmon resonance) (other, UniProt Q9H4F8 27-434, looked up)
chain: HRTTGPRFLISDRDPQCNLHCSRTQPKPICASDGRSYESMCEYQRAKCRDPTLGVVHRGRCKDAGQSKCRLERAQALEQAKKPQEAVFVPECGEDGSFTQVQCHTYTGYCWCVTPDGKPISGSSVQNKTPVCSGSVTDKPLSQGNSGRKDDGSKPTPTMETQPVFDGDEITAPTLWIKHLVIKDSKLNNTNIRNSEKVYSCDQERQSALEEAQQNPREGIVIPECAPGGLYKPVQCHQSTGYCWCVLVDTGRPLPGTSTRYVMPSCESDARAKTTEADDPFKDRELPGCPEGKKMEFITSLLDALTTDMVQAINSAAPTGGGRFSEPDPSHTLEERVVHWYFSQLDSNSSNDINKREMKPFKRYVKKKAKPKKCARRFTDYCDLNKDKVISLPELKGCLGVSKEGRLV
notes: mature; also called hSMOC1; not shown: C-terminal tag: either 6 histidines alone (SMOC1-his) or myc-DDK plus 6 histidines

MASCOT Score (fibronectin) [1]: 0
spectrum count (fibronectin) [1]: 0
normalized enrichment (MRM), tenascin-C against control [3]: 4.5 fold
B4: SPARC-related modular calcium-binding protein 1 (SMOC1) from HEK293 conditioned medium (other, human, UniProt Q9H4F8 27-434, looked up)
chain: HRTTGPRFLISDRDPQCNLHCSRTQPKPICASDGRSYESMCEYQRAKCRDPTLGVVHRGRCKDAGQSKCRLERAQALEQAKKPQEAVFVPECGEDGSFTQVQCHTYTGYCWCVTPDGKPISGSSVQNKTPVCSGSVTDKPLSQGNSGRKDDGSKPTPTMETQPVFDGDEITAPTLWIKHLVIKDSKLNNTNIRNSEKVYSCDQERQSALEEAQQNPREGIVIPECAPGGLYKPVQCHQSTGYCWCVLVDTGRPLPGTSTRYVMPSCESDARAKTTEADDPFKDRELPGCPEGKKMEFITSLLDALTTDMVQAINSAAPTGGGRFSEPDPSHTLEERVVHWYFSQLDSNSSNDINKREMKPFKRYVKKKAKPKKCARRFTDYCDLNKDKVISLPELKGCLGVSKEGRLV
notes: Endogenous protein pulled down from medium

More lines, now with the values behind:

B1: Nidogen-2 (other, human, UniProt Q14112 31-1375, looked up)
chain: LHPDELFPHGESWGDQLLQEGDDESSAVVKLANPLHFYEARFSNLYVGTNGIISTQDFPRETQYVDYDFPTDFPAIAPFLADIDTSHGRGRVLYREDTSPAVLGLAARYVRAGFPRSARFTPTHAFLATWEQVGAYEEVKRGALPSGELNTFQAVLASDGSDSYALFLYPANGLQFLGTRPKESYNVQLQLPARVGFCRGEADDLKSEGPYFSLTSTEQSVKNLYQLSNLGIPGVWAFHIGSTSPLDNVRPAAVGDLSAAHSSVPLGRSFSHATALESDYNEDNLDYYDVNEEEAEYLPGEPEEALNGHSSIDVSFQSKVDTKPLEESSTLDPHTKEGTSLGEVGGPDLKGQVEPWDERETRSPAPPEVDRDSLAPSWETPPPYPENGSIQPYPDGGPVPSEMDVPPAHPEEEIVLRSYPASGHTTPLSRGTYEVGLEDNIGSNTEVFTYNAANKETCEHNHRQCSRHAFCTDYATGFCCHCQSKFYGNGKHCLPEGAPHRVNGKVSGHLHVGHTPVHFTDVDLHAYIVGNDGRAYTAISHIPQPAAQALLPLTPIGGLFGWLFALEKPGSENGFSLAGAAFTHDMEVTFYPGEETVRITQTAEGLDPENYLSIKTNIQGQVPYVSANFTAHISPYKELYHYSDSTVTSTSSRDYSLTFGAINQTWSYRIHQNITYQVCRHAPRHPSFPTTQQLNVDRVFALYNDEERVLRFAVTNQIGPVKEDSDPTPGNPCYDGSHMCDTTARCHPGTGVDYTCECASGYQGDGRNCVDENECATGFHRCGPNSVCINLPGSYRCECRSGYEFADDRHTCILITPPANPCEDGSHTCAPAGQARCVHHGGSTFSCACLPGYAGDGHQCTDVDECSENRCHPAATCYNTPGSFSCRCQPGYYGDGFQCIPDSTSSLTPCEQQQRHAQAQYAYPGARFHIPQCDEQGNFLPLQCHGSTGFCWCVDPDGHEVPGTQTPPGSTPPHCGPSPEPTQRPPTICERWRENLLEHYGGTPRDDQYVPQCDDLGHFIPLQCHGKSDFCWCVDKDGREVQGTRSQPGTTPACIPTVAPPMVRPTPRPDVTPPSVGTFLLYTQGQQIGYLPLNGTRLQKDAAKTLLSLHGSIIVGIDYDCRERMVYWTDVAGRTISRAGLELGAEPETIVNSGLISPEGLAIDHIRRTMYWTDSVLDKIESALLDGSERKVLFYTDLVNPRAIAVDPIRGNLYWTDWNREAPKIETSSLDGENRRILINTDIGLPNGLTFDPFSKLLCWADAGTKKLECTLPDGTGRRVIQNNLKYPFSIVSYADHFYHTDWRRDGVVSVNKHSGQFTDEYLPEQRSHLYGITAVYPYCPTGRK
notes: also called NID2
MASCOT Score (fibronectin) [1]: 0
spectrum count (fibronectin) [1]: 0

B2: Phosphoglycerate kinase 1 (enzyme, human, UniProt P00558 2-417, looked up)
chain: SLSNKLTLDKLDVKGKRVVMRVDFNVPMKNNQITNNQRIKAAVPSIKFCLDNGAKSVVLMSHLGRPDGVPMPDKYSLEPVAVELKSLLGKDVLFLKDCVGPEVEKACANPAAGSVILLENLRFHVEEEGKGKDASGNKVKAEPAKIEAFRASLSKLGDVYVNDAFGTAHRAHSSMVGVNLPQKAGGFLMKKELNYFAKALESPERPFLAILGGAKVADKIQLINNMLDKVNEMIIGGGMAFTFLKVLNNMEIGTSLFDEEGAKIVKDLMSKAEKNGVKITLPVDFVTADKFDENAKTGQATVASGIPAGWMGLDCGPESSKKYAEAVTRAKQIVWNGPVGVFEWEAFARGTKALMDEVVKATSRGCITIIGGGDTATCCAKWNTEDKVSHVSTGGGASLELLEGKVLPGVDALSNI
notes: also called PGK1
MASCOT Score (fibronectin) [1]: 100
spectrum count (fibronectin) [1]: 6

Source: US20130004519A1 (published 2013)
